The target in test [1] is T1, human IFNAR1, full length (IFNAR1-aa1-557) (human) (UniProt P17181).
T1 sequence (looked up): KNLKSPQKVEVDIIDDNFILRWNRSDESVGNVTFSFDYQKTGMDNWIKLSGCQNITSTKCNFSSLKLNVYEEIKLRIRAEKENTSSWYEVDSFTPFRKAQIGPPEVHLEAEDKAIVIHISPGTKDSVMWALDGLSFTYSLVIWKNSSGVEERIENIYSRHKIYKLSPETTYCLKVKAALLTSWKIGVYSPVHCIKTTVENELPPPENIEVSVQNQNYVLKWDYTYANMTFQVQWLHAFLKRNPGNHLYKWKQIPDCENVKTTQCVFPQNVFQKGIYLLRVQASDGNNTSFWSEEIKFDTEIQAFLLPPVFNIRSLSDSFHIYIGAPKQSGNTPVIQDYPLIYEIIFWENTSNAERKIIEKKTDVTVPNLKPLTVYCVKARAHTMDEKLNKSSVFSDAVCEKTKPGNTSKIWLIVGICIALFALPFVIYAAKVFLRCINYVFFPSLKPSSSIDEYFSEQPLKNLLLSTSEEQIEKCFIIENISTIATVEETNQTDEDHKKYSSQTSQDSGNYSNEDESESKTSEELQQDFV
The experiment in a line: cell-based or functional assay.

A further test addresses T2, Human IFNAR1 SD1-SD4 (human, UniProt P17181 28-436, limits assumed).
T2 construct: domain: SD1-SD4; Antigen injected in the Biacore assay
T2 sequence (looked up): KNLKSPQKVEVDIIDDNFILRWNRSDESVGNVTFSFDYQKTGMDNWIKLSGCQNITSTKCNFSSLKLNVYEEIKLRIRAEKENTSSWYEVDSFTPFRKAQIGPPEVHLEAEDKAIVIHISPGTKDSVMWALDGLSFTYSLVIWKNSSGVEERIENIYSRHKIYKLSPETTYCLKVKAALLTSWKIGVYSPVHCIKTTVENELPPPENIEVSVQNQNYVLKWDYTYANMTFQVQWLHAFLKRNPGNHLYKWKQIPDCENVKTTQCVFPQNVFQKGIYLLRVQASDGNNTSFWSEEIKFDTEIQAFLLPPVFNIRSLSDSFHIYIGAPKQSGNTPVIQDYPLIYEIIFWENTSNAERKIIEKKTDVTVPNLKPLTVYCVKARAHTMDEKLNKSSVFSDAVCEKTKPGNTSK
The experiment in a line: SPR (Biacore 8K), antibody captured on anti-human IgG Fc, antigen injected. On the technique in general: In SPR one partner is held on a chip, and binding of the other changes the refractive index at the surface.

The target in another test is T3, human IFNAR1 ECD (human, UniProt P17181 28-436).
T3 construct: extracellular domain; Coated on ELISA plates at 5 ug/ml
T3 sequence (looked up): T2 sequence (looked up)
The experiment in a line: ELISA, plate coated with human IFNAR1 ECD, anti-human IgG Fc-peroxidase, OD450. On the technique in general: ELISA stands for enzyme-linked immunosorbent assay.

For test [2], the target named is T4, human IFNAR1, full length (IFNAR1-aa1-557) (human, UniProt P17181 28-557).
T4 construct: whole, on cells; Overexpressed on HEK293T cells from pIRES2-EGFP-IFNAR1; also used here for the human IFNAR1 of the IFN-I reporter cells and the cells of the virus assays; also called IFNAR1-WT; wild type IFNAR1
T4 sequence (looked up): T1 sequence (looked up)
Nature of the test: flow cytometry on cells expressing human IFNAR1, MFI of PE. (In general: Flow cytometry measures light scatter and fluorescence of single cells or particles in a stream.)

Test [3] deals with T4, human IFNAR1, full length …. Described as above. The source holds these as a separate data set.
For test [4], the target named is T1, human IFNAR1, full length (IFNAR1-aa1-557) (human). Nature of the test: cell-based or functional assay. The source holds these as a separate data set.

Positions count from the first letter of the chain named. Numbers in names are those of the source. Like-named read-outs stand apart in the source and are kept apart here. A value given as a limit tells only on which side of the number the result lay.

Description for Human IFNAR1 SD1-SD4: Preparation of a CM5 chip surface: Using HBS-EP+ (10 mM HEPES, 150 mM NaCl, 3 mM EDTA, 0.05% surfactant P20) as running buffer, both channel 1&2 of a CM5 sensor chip (GE Healthcare, BR-1000-30) were activated with a fresh mixture of 50 mM NHS and 200 mM EDC (1:1). Anti-human IgG Fc, 20 μg/ml in 10 mM NaOAc buffer (pH 5.0), was then passed over the activated surface of the two flow cells in each channel at 10 l/min (target around 10000 RU). […] Low flow rate was maintained over 2 hours for the equilibrium of the immobilized protein.
Measurement of binding kinetics: Each antibody was captured in flow cell FC2 in channel 1&2 around 250 RU respectively, using FC1 as the reference cell, followed by injection of antigen samples at varying concentrations. The signals with captured antibody subtracted from that without captured antibody were calculated with Biacore 8K evaluation software. The running buffer was HBS-EP+(10 mM HEPES, 150 mM NaCl, 3 mM EDTA, 0.05% surfactant P20).
Description for human IFNAR1 ECD: 96-well plates were coated with 100ul 5 ug/ml human IFNAR1 ECD in 1×PBS and incubate at 4° C. overnight. The plates were then washed with PBST (1×PBS+0.05% Tween20) for 3 times and blocked with the blocking buffer (1×PBS+0.05% Tween20+1% BSA) at RT for 2 hr. […] The plates were washed with PBST for 3 times, followed by addition of antibody (Anti-Human IgG (Fc specific)-Peroxidase antibody produced in goat, ZSGB-BIO) at 100ul/well and then incubated at RT for 1 hr. The plates were washed with PBST 5 times and then 100ul/well TMB was added and after 15 minutes, the plates were quenched with 50ul/well 2N H₂SO₄. The plates were read with Molecular device spectra max at 450 nm.

With “Human IFNω (from UniProt P05000 24-195) (ligand)”, in test [1], the percentage of GFP positive cells in IFN-I reporter cells, 50 pg/ml IFNω against Mock control is above 5 fold.

Turning to “Human IFNβ (from UniProt P01574 22-187) (ligand)”, the percentage of GFP positive cells in IFN-I reporter cells, 50 pg/ml IFNβ against Mock control in test [1] was above 5 fold.

B1: Hu4-14 (antibody, V domains shown)
VH: QVQLVQSGAEVKKPGASVKVSCKASGYTFTSYWMNWVRQAPGQGLEWMGKIDPSDSETHFNQKFRDRVTLTVDKSTSTVYMELSSLRSEDTAVYYCARGGRISFDYDAALDYWGQGTLVTVSS
VL: DIQMTQSPSSLSASVGDRVTITCKSSEVIYNRLAWYQQKPGNAPKLLISGATTLESGVPSRFSGSGSGKDYTLTISSLQPEDFATYYCQQYWNKPFTFGQGTKLEIK
notes: Humanized 7G4 variant
In general, Kd refers to the constant that tells how readily two partners part at equilibrium. Low values mean higher affinity, high ones lower affinity. In general, koff refers to the rate constant with which the complex falls apart. Read a low koff as a long-lived complex. For orientation: kon means a measure of how fast the partners come together. A lower kon goes with slow association. As a reminder, the EC50 is the concentration giving half of the maximal effect. In the test with Human IFNAR1 SD1-SD4, B1 registered a Kd of 0.461 nM, a koff of 0.000214 s⁻¹ and a kon of 465000 M⁻¹ s⁻¹. Besides, in the test with human IFNAR1 ECD, the response was half-maximal at 0.00227 mg/L (EC50) and the Top is 3.1 OD450.

B2: Hu4-13 (antibody, V domains shown)
VH: B1 VH with L70M, V72R, K74T
VL: B1 VL
notes: Humanized 7G4 variant
The EC50 (read off the curve) is the concentration at which the effect is half-maximal. Consider B2, for which the “EC50 (read off the curve)” value in test [2] is around 0.04 mg/L. In the test with Human IFNAR1 SD1-SD4, this molecule registered a Kd of 0.671 nM, a koff of 0.000301 s⁻¹ and an on-rate (kon) of 449000 M⁻¹ s⁻¹. In the test with human IFNAR1 ECD, this molecule came in with a 50% effective concentration (EC50) of 0.00327 mg/L and a Top of 3.4 OD450.

B3: Hu4-6 (antibody, V domains shown)
VH: B1 VH
VL: B1 VL with N42K, S49Y
notes: Humanized 7G4 variant
For B3, the “EC50 (read off the curve)” value in test [3] was around 0.06 mg/L. Also, the “EC50 (read off the curve)” value in test [2] is around 0.04 mg/L. For the same molecule, in the test with Human IFNAR1 SD1-SD4, the Kd turned out to be 0.633 nM, the koff came to 0.000281 s⁻¹ and the kon amounted to 444000 M⁻¹ s⁻¹. Moreover, in the test with human IFNAR1 ECD, the EC50 is 0.00321 mg/L and the Top was determined as 3.35 OD450.

B4: Hu4-15 (antibody, V domains shown)
VH: B1 VH with M48I
VL: B1 VL
notes: Humanized 7G4 variant
For the molecule B4, in the test with Human IFNAR1 SD1-SD4, the Kd amounted to 0.442 nM, the koff is 0.000209 s⁻¹ and the kon turned out to be 472000 M⁻¹ s⁻¹. In the test with human IFNAR1 ECD, this molecule yielded an EC50 of 0.00284 mg/L and a Top of 3.46 OD450.

B5: Hu4-16 (antibody, V domains shown)
VH: B1 VH with A40R, M48I
VL: B1 VL
notes: Humanized 7G4 variant
Consider B5, for which, in the test with Human IFNAR1 SD1-SD4, the Kd was 0.466 nM, the koff turned out to be 0.00021 s⁻¹ and the kon came out at 451000 M⁻¹ s⁻¹. Besides, in the test with human IFNAR1 ECD, the EC50 was found to be 0.00315 mg/L and the Top is 3.31 OD450.

B6: Hu4-6-mut-1 (antibody, V domains shown)
VH: B1 VH with A108G
VL: B1 VL with N42K, S49Y
notes: Hu4-6 with A108G in VH (HCDR3)
Turning to B6, the “EC50 (read off the curve)” value in test [3] is around 0.07 mg/L.

B7: Hu4-6-mut-3 (antibody, V domains shown)
VH: B1 VH with A108G
VL: B1 VL with N42K, S49Y, T53S, S56T
notes: Hu4-6 with A108G in VH and T53S and S56T in VL
On to B7, for which the “EC50 (read off the curve)” value in test [3] was around 0.06 mg/L.

B8: Hu4-6-mut-2 (antibody, V domains shown)
VH: B1 VH
VL: B1 VL with N42K, S49Y, T53S, S56T
notes: Hu4-6 with T53S and S56T in VL (LCDR2)
In the case of B8, the “EC50 (read off the curve)” value in test [3] is around 0.06 mg/L.

B9: IFNAR1 monoclonal antibody 10C9 (antibody, from another filing, V domains shown)
VH: QIQLVQSGPELKKPGETVKISCKASGYTFTNYGVNWMKQAPGKGLKWMGWINTYTGEPTYADDFKGRFAFSLETSASTAYLQINNLKNEDTATYFCAREGVYYYGDWAWLAYWGQGTLVTVSA
VL: DIVMTQSQKFISTSVGDRVSVTCKASQNVGTNVAWYQQKPGQSPKTLIYSTSYRYNGVPDRFTGSGSGTDFTLTISNVQSEDLAEYFCQQYNSYYTFGGGTKLEIK
B9: in test [4], the blocking effect on GFP expression induced by IFNα1 in IFN-I reporter cells (++ = greater than 80%) is above 80%, the blocking effect on GFP expression induced by IFNα2a in IFN-I reporter cells (++ = greater than 80%) is above 80%, the blocking effect on GFP expression induced by IFNα2b in IFN-I reporter cells (++ = greater than 80%) was above 80% and the blocking effect on GFP expression induced by IFNα4 in IFN-I reporter cells (++ = greater than 80%) is above 80%. In test [4], this molecule returned a blocking effect on GFP expression induced by IFNα5 in IFN-I reporter cells (++ = greater than 80%) above 80%, a blocking effect on GFP expression induced by IFNα6 in IFN-I reporter cells (++ = greater than 80%) above 80%, a blocking effect on GFP expression induced by IFNα7 in IFN-I reporter cells (++ = greater than 80%) above 80% and a blocking effect on GFP expression induced by IFNα8 in IFN-I reporter cells (++ = greater than 80%) above 80%. In test [4], this molecule yielded a blocking effect on GFP expression induced by IFNα10 in IFN-I reporter cells (++ = greater than 80%) above 80%, a blocking effect on GFP expression induced by IFNα14 in IFN-I reporter cells (++ = greater than 80%) above 80%, a blocking effect on GFP expression induced by IFNα16 in IFN-I reporter cells (++ = greater than 80%) above 80% and a blocking effect on GFP expression induced by IFNα17 in IFN-I reporter cells (++ = greater than 80%) above 80%. In test [4], the blocking effect on GFP expression induced by IFNα21 in IFN-I reporter cells (++ = greater than 80%) was above 80% and the blocking effect on GFP expression induced by IFNω in IFN-I reporter cells (++ = greater than 80%) was above 80%.

B10: 7G4 Chimeric (antibody, V domains shown)
VH: QVQLQQPGAELVKPGAPVKLSCKASGYTFTSYWMNWVRQRPGRGLEWIGKIDPSDSETHFNQKFRDKATLTVDKSSTTAYIQLSSLTSEDSAVYYCARGGRISFDYDAALDYWGQGTSVTVSS
VL: DILMTQSSSSFSVSLGDRVTITCKSSEVIYNRLAWFQQKPGNAPRLLISGATTLESGFPSRFSGSGSGKDYTLSITSLQIEDVSTYYCQQYWNKPFTFGSGTKLEVK
For the molecule B10, the “EC50 (read off the curve)” value in test [2] is around 0.04 mg/L. In the test with Human IFNAR1 SD1-SD4, this molecule displayed a Kd of 0.765 nM, a koff of 0.000349 s⁻¹ and a kon of 456000 M⁻¹ s⁻¹. In addition, in the test with human IFNAR1 ECD, the EC50 amounted to 0.00465 mg/L and the Top was 3.27 OD450.

B11: IFNAR1 monoclonal antibody 10C2 (antibody, from another filing, V domains shown)
VH: QIQLVQSGPELKKPGETVKISCKASGYTFTNYGMNWVKQAPGKGLKWMGWINTYTGEPTYSDDFKGRFAFSLETSASTANLQINNLKDEDAATYFCAREGAIYYGDYVYFGVWGAGTTVTVSS
VL: DIVMTQSQKFMSTSVGDRVSITCKASQNVGTAVAWYQEKPGQSPKLLIYSASNRYTGVPDRFTGSGSGTAFTLTISNMQSEDLADYFCQQYYNYPLTFGAGTKLEVKR
For B11, in test [4], the blocking effect on GFP expression induced by IFNα1 in IFN-I reporter cells (++ = greater than 80%) was above 80%, the blocking effect on GFP expression induced by IFNα2a in IFN-I reporter cells (++ = greater than 80%) was above 80%, the blocking effect on GFP expression induced by IFNα2b in IFN-I reporter cells (++ = greater than 80%) is above 80% and the blocking effect on GFP expression induced by IFNα4 in IFN-I reporter cells (++ = greater than 80%) is above 80%. In test [4], the blocking effect on GFP expression induced by IFNα5 in IFN-I reporter cells (++ = greater than 80%) was above 80%, the blocking effect on GFP expression induced by IFNα6 in IFN-I reporter cells (++ = greater than 80%) was above 80%, the blocking effect on GFP expression induced by IFNα7 in IFN-I reporter cells (++ = greater than 80%) was above 80% and the blocking effect on GFP expression induced by IFNα8 in IFN-I reporter cells (++ = greater than 80%) is above 80%. In test [4], this molecule showed a blocking effect on GFP expression induced by IFNα10 in IFN-I reporter cells (++ = greater than 80%) above 80%, a blocking effect on GFP expression induced by IFNα14 in IFN-I reporter cells (++ = greater than 80%) above 80%, a blocking effect on GFP expression induced by IFNα16 in IFN-I reporter cells (++ = greater than 80%) above 80% and a blocking effect on GFP expression induced by IFNα17 in IFN-I reporter cells (++ = greater than 80%) above 80%. In test [4], this molecule displayed a blocking effect on GFP expression induced by IFNα21 in IFN-I reporter cells (++ = greater than 80%) above 80%; a blocking effect on GFP expression induced by IFNω in IFN-I reporter cells (++ = greater than 80%) above 80%; a fold decrease in percentage of GFP positive reporter cells with serum from SLE patients of 3 fold; a percentage of GFP positive reporter cells with human IFNβ and 10 µg/mL antibody of 20%.

The values are drawn from patent US20220144957A1 (IMMUNECENT BIOTECHNOLOGY, published 2022).
